Measurements reported in US5814466, “Method for assaying for a substance that affects an SH2-phosphoraylated ligand regulatory system” (Mount Sinai Hospital Corporation, dated 1998).

B1: TrpE-GAP-SH2[N+3+C] (other)
chain: MQTQKPTLELLTCEGAYRDNPTALFHQLCGDRPATLLLESADIDSKDDLKSLLLVDSALRITALGDTVTIQALSGNGEALLALLDNALPAGVESEQSPNCRVLRFPPVSPLLDEDARLCSLSVFDAFRLLQNLLNVPKEEREAMFFGGLFSYDLVAGFEDLPQLSAENNCPDFCFYLAETLMVIDHQKKSTRIQASLFAPNEEEKQRLTARLNELRQQLTEAAPPLPVVSVPHMRCECNQSDEEFGGVVRLLQKAIRAGEIFQVVPSRRFSLPCPSPLAAYYVLKKSNPSPYMFFMQDNDFTLFGASPESSLKYDATSRQIEITNQWYHGKLDRTIAEERLRQAGKSGSYLIRESDRRPGSFVLSFLSQMNVVNHFRIIAMCGDYYIGGRRFSSLSDLIGYYSHVSCLLKGEKLLYPVAPPEPVEDRRRVRAILPYTKVPDTDEISFLKGDMFIVHNELEDGWMWVTNLRTDEQGLIVEDLVEEVGREEDPHEGKIWFHGKISKQEAYNLLMTVGQVCSFLVRPSDNTPGDYSLYFRTNENIQRFKICPTPNNQFMMGGRYYNSIGDIIDHYRKEQIVEGYYLKEPVPMQD
B2: TrpE-PLC-SH2[N] (other)
chain: MQTQKPTLELLTCEGAYRDNPTALFHQLCGDRPATLLLESADIDSKDDLKSLLLVDSALRITALGDTVTIQALSGNGEALLALLDNALPAGVESEQSPNCRVLRFPPVSPLLDEDARLCSLSVFDAFRLLQNLLNVPKEEREAMFFGGLFSYDLVAGFEDLPQLSAENNCPDFCFYLAETLMVIDHQKKSTRIQASLFAPNEEEKQRLTARLNELRQQLTEAAPPLPVVSVPHMRCECNQSDEEFGGVVRLLQKAIRAGEIFQVVPSRRFSLPCPSPLAAYYVLKKSNPSPYMFFMQDNDFTLFGASPESSLKYDATSRQIEIWFHGKLGAGRDGRHIAERLLTEYCIETGAPDGSFLVRESETFVGDYTLSFWRNGKVQHCRIHSRQDAGTPKFFLTDNLVFDSLYDLITHYQQVPLRCNEFEMRLSEPV
B3: TrpE-PLC-SH2[N+C] (other)
chain: MQTQKPTLELLTCEGAYRDNPTALFHQLCGDRPATLLLESADIDSKDDLKSLLLVDSALRITALGDTVTIQALSGNGEALLALLDNALPAGVESEQSPNCRVLRFPPVSPLLDEDARLCSLSVFDAFRLLQNLLNVPKEEREAMFFGGLFSYDLVAGFEDLPQLSAENNCPDFCFYLAETLMVIDHQKKSTRIQASLFAPNEEEKQRLTARLNELRQQLTEAAPPLPVVSVPHMRCECNQSDEEFGGVVRLLQKAIRAGEIFQVVPSRRFSLPCPSPLAAYYVLKKSNPSPYMFFMQDNDFTLFGASPESSLKYDATSRQIEIWFHGKLGAGRDGRHIAERLLTEYCIETGAPDGSFLVRESETFVGDYTLSFWRNGKVQHCRIHSRQDAGTPKFFLTDNLVFDSLYDLITHYQQVPLRCNEFEMRLSEPVPQTNAHESKEWYHASLTRAQAEHMLMRVPRDGAFLVRKRNEPNSYAISFRAEGKIKHCRVQQEGQTVMLGNSEFDSLVDLISYYEKHPLYRKMKLRYPI

Tests used:
[1] = biological target: T1, PDGF receptor from BB-PDGF-stimulated Rat-2 cells (activated PDGF-R) (rat (endogenous protein of Rat-2 cells), UniProt Q05030, phosphotyrosine (after stimulation with 75 nM BB-PDGF; sites not stated)); test: pull-down of immobilised TrpE fusion from lysate of PDGF-stimulated Rat-2 cells, immunoblot
Experimental: The following procedure was used to investigate binding of TryE fusion proteins that contain GAP, Src, or Crk SH2 domains to PDGF-R in lysates of stimulated Rat-2 cells. Serum-starved Rat-2 cells were stimulated for 5 min at 37° C. with 75 nM BB-PDGF, lysed, and mixed with the indicated immobilized TrpE bacterial fusion proteins. Complexes were washed, resolved on 7.5% SDS-polyacrylamide gels and analyzed by immunoblotting with anti-P.Tyr (8 hour exposure) or with anti-PDGF-R (18 hour exposure).
Because GAP also associates with the PDGF-R, experiments were carried out using bacterial GAP SH2 sequences (see FIG. 7). The GAP SH2[N] domain bound the PDGF-R in a lysate of PDGF-stimulated cells (FIG. 9), but not in unstimulated cells.

[2] = biological target: T1, PDGF receptor from BB-PDGF-stimulated …; test: pull-down from lysate of PDGF-stimulated Rat-2 PLCγ1 cells; competitor: overexpressed cellular PLCγ1
Description: Only a minor fraction of activated PDGF-R complexes with PLCγ1 in vivo. A Rat-2 cell line was genetically modified to overexpress PLCγ1 by tenfold as compared with the endogenous enzyme (Rat-2 PLCγ1). There is a proportionate increase in the amount of PDGF-R precipitated with antibodies to PLCγ1 (anti-PLCγ1) after PDGF stimulation of Rat-2 PLCγ1 cells, in comparison with parental Rat-2 cells. If bacterial PLCγ1 SH2 domains bound to the same site(s) on the PDGF-R as did cellular PLCγ1, then overexpression of PLCγ1 should block binding of bacterial PLCγ1 SH2 domains to activated PDGF-R in vitro. To investigate this Rat-2 cells (FIG. 10, lanes 1, 2, 5 and 6) or a Rat-2 cell line that overexpressed PLCγ1 by tenfold (R2-PLCγ; lanes 3, 4, 7, 8) were stimulated with PDGF (lanes 1, 3, and 5–8) or maintained without PDGF (lanes 2 and 4). Cell lysates were mixed with immobilized TrpE-PLC-SH2[N] (lanes 1 to 4), TrpE-PLC-SH2[N+C] (lanes 5 and 7), or TrpE-GAP-SH2 [N+3+C] ([…]). Samples were washed, separated by gel electrophoresis, and immunoblotted with anti-P.Tyr. Similar results were obtained by blotting with anti-PDGF-R.

Row | Binder | fold more efficient binding than expected from the individual SH2 domains [1] [fold] | PDGF-R associated, relative to parental PDGF-stimulated Rat-2 cells [2]
1 | B1 | 3 | –
2 | B2 | – | 0.33 fraction of the amount from parental Rat-2 cells
3 | B3 | – | 0.33 fraction of the amount from parental Rat-2 cells
